# Test results from paper PMC3173486.
# B1: recombinant human SP-D, P35247 21-375 (natural protein)
# chain: AEMKTYSHRTMPSACTLVMCSSVESGLPGRDGRDGREGPRGEKGDPGLPGAAGQAGMPGQAGPVGPKGDNGSVGEPGPKGDTGPSGPPGPPGVPGPAGREGPLGKQGNIGPQGKPGPKGEAGPKGEVGAPGMQGSAGARGLAGPKGERGVPGERGVPGNTGAAGSAGAMGPQGSPGARGPPGLKGDKGIPGDKGAKGESGLPDVASLRQQVEALQGQVQHLQAAFSQYKKVELFPNGQSVGEKIFKTAGFVKPFTEAQLLCTQAGGQLASPRSAAENAALQQLVVAKNEAAFLSMTDSKTEGKFTYPTGESLVYSNWAPGEPNDDGGSEDCVEIFTNGKWNDRACGEKRLVVCEF
# B2: recombinant porcine SP-D, Q9N1X4 21-378 (natural protein)
# chain: AEMKTYSQRAVANACALVMCSPMENGLPGRDGRDGREGPRGEKGDPGLPGAVGRAGMPGLAGPVGPKGDNGSTGEPGAKGDIGPCGPPGPPGIPGPAGKEGPSGQQGNIGPPGTPGPKGETGPKGEVGALGMQGSTGARGPAGLKGERGAPGERGAPGSAGAAGPAGATGPQGPSGARGPPGLKGDRGPPGERGAKGESGLPGITALRQQVETLQGQVQRLQKAFSQYKKVELFPNGRGVGEKIFKTGGFEKTFQDAQQVCTQAGGQMASPRSETENEALSQLVTAQNKAAFLSMTDIKTEGNFTYPTGEPLVYANWAPGEPNNNGGSSGAENCVEIFPNGKWNDKACGELRLVICEF
# B3: RpSP-D trimers (natural protein)
# chain: B2 chain
# B4: RpSP-D multimers (natural protein)
# chain: B2 chain
# Experiments:
# [1] = biological target: HA of A/swine/Netherlands/1/87 (H1N1) (influenza A virus A/swine/Netherlands/1/87 (H1N1))
# [2] = biological target: HA of human-derived H3N2 strains
# [3] = biological target: HA of the 2009 pandemic H1N1 strains, California/4/09 and Netherlands/602/09
# [4] = biological target: HA of all influenza A/H1N1 viruses tested with RpSP-D multimers and trimers
molecule,measurement,setting,value
RpSP-D trimers (from UniProt Q9N1X4 21-378) (natural protein),HI assay: minimal inhibitory concentration of RpSP-D trimers; not inhibited,[1],> 1600 ng/100 µl
B1,HI assay: minimal inhibitory concentration of RhSP-D; failed to inhibit,HA of most H1N1 viruses,> 7500 ng/100 µl
B2,HI assay: minimal inhibitory concentration of RpSP-D,HA of swine H3N2 viruses,51 ng/100 µl
same,HI assay: minimal inhibitory concentration of RpSP-D,HA of avian H3N2 viruses,14.6 ng/100 µl
same,HI assay: minimal inhibitory concentration of RpSP-D,[2],11 ng/100 µl
same,HI assay: average inhibitory concentration of RpSP-D,[3],304 ng/100 µl
B3,HI assay: average minimal inhibitory concentration of RpSP-D trimers,[4],602 ng/100 µl
B4,HI assay: average minimal inhibitory concentration of RpSP-D multimers,[4],39.8 ng/100 µl
